The target of this test is monoclonal anti-S1 antibody 1B7. In words: competition RIA: 1B7 coated on plate, 125I-PT displaced by unlabelled toxin.

Consider “PT-13L/129G (from UniProt P04978 28-226; P04979 29-227; P0A3R5 43-152; P04981 35-133)”, for which the Ka was 1.3e+08 M⁻¹.
The substance “PT-26I/129G (from UniProt P04978 28-226; P04979 29-227; P0A3R5 43-152; P04981 35-133)” yielded a Ka of 5.5e+07 M⁻¹.
“PT-129G (from UniProt P04978 28-226; P04979 29-227; P0A3R5 43-152; P04981 35-133)” gave a Ka of 2.1e+08 M⁻¹.

For the origin of these results see patent publication US7427404.
